Legend:
[1] = molecular target: N-terminally biotinylated Gαs-peptide (bio-Spep); assay: pull-down; affinity sequestration: β2AR-mCer native membranes with 100 µM isoproterenol and 30 µM bio-Spep, 5 min at room temperature, then streptavidin Dynabeads for 5 min; fraction bound = 1 - fraction of mCerulean counts in the supernatant; FRET buffer + 0.1 mg/mL BSA
[2] = molecular target: N-terminally biotinylated Gαs-peptide (bio-Spep); assay: pull-down; affinity sequestration as above, with 10 µM Qpep (Gαq peptide) added to the 30 µM bio-Spep; 100 µM isoproterenol; streptavidin Dynabeads; FRET buffer + 0.1 mg/mL BSA
[3] = molecular target: β2 adrenergic receptor, the receptor part of the β2AR-Spep SPASM sensor (UniProt P07550); assay: FRET or BRET; steady-state ΔFRET of the β2AR-Spep SPASM sensor in native HEK293T membranes; 100 µM isoproterenol with 30 µM soluble Qpep (Gαq peptide), 5 min, 25 °C, FRET buffer; both partners on one chain
[4] = molecular target: β2 adrenergic receptor, the receptor part of the β2AR-Spep SPASM sensor (UniProt P07550); assay: FRET or BRET; stopped-flow decay of the FRET ratio (mCit/mCer) of the β2AR-Spep SPASM sensor in native HEK293T membranes, preincubated with 100 µM isoproterenol and quenched with 10 µM Nb6B9; FRET buffer; triple exponential fit with one decay constrained to the decay without Nb6B9; both partners on one chain
[5] = molecular target: β2 adrenergic receptor, the receptor part of the β2AR-Spep SPASM sensor (UniProt P07550); assay: FRET or BRET; steady-state ΔFRET of the β2AR-Spep SPASM sensor in native HEK293T membranes; 100 µM clenbuterol (partial agonist) against buffer, 5 min, 25 °C, FRET buffer; both partners on one chain
[6] = molecular target: β2 adrenergic receptor, the receptor part of the β2AR-Spep SPASM sensor (UniProt P07550); assay: FRET or BRET; steady-state ΔFRET of the β2AR-Spep SPASM sensor in native HEK293T membranes; 100 µM clenbuterol with 30 µM soluble Qpep (Gαq peptide), 5 min, 25 °C, FRET buffer; both partners on one chain

| Substance | fraction of receptor bound [1] [%] | fraction of receptor bound, with 10 µM Qpep [2] [%] | fold increase of the interaction (ΔFRET) with Qpep against without, isoproterenol [3] [fold] | koff, strong interaction state (slow decay) [4] [s⁻¹] | koff, weak interaction state (fast decay) [4] [s⁻¹] | fold weaker interaction (ΔFRET) with clenbuterol than with isoproterenol [5] [fold] | fold increase of the interaction (ΔFRET) with Qpep against without, clenbuterol [6] [fold] |
| --- | --- | --- | --- | --- | --- | --- | --- |
| β2AR-mCerulean (from UniProt P07550 1-413) (receptor) | 5 | 17 |  |  |  |  |  |
| Gαs-peptide (Spep), the 27 amino acid Gα C-terminal peptide of the β2AR-Spep SPASM sensor |  |  | 2 | 0.006 | 0.3 | 6 | 5 |
